Measurements taken from IntAct's records for PubMed 29892012.

B1: Ras suppressor protein 1 (Homo sapiens), Q15404 (parent)
chain: MSKSLKKLVEESREKNQPEVDMSDRGISNMLDVNGLFTLSHITQLVLSHNKLTMVPPNIAELKNLEVLNFFNNQIEELPTQISSLQKLKHLNLGMNRLNTLPRGFGSLPALEVLDLTYNNLSENSLPGNFFYLTTLRALYLSDNDFEILPPDIGKLTKLQILSLRDNDLISLPKEIGELTQLKELHIQGNRLTVLPPELGNLDLTGQKQVFKAENNPWVTPIADQFQLGVSHVFEYIRSETYKYLYGRHMQANPEPPKKNNDKSKKISRKPLAAKNR
B2: Atos homolog protein B (Homo sapiens), Q7L5A3 (parent)
chain: MRHVQAEPSPSSEPEAGPSQPPVRQGALQGGLLMGYSPAGGATSPGVYQVSIFSPPAGTSEPHRALKRQAPSTEGPRELKRGPGLGAREGLPPEEPSTVGLLGPEGPGLGLGVASQHFSHRGLCVVEQRSSVTSSWTSGAWSPPCPPSNASCNTLHTRDWASPDPGGQGSLGESPGPAPPGQLHTLDTDLHSLAQIGGKSPVAGVGNGGSLWPRESPGTANGHSPEHTPPGPGPPGPCPTKRRLLPAGEAPDVSSEEEGPAPRRRRGSLGHPTAANSSDAKATPFWSHLLPGPKEPVLDPTDCGPMGRRLKGARRLKLSPLRSLRKGPGLLSPPSASPVPTPAVSRTLLGNFEESLLRGRFAPSGHIEGFTAEIGASGSYCPQHVTLPVTVTFFDVSEQNAPAPFLGIVDLNPLGRKGYSVPKVGTVQVTLFNPNQTVVKMFLVTFDFSDMPAAHMTFLRHRLFLVPVGEEGNANPTHRLLCYLLHLRFRSSRSGRLSLHGDIRLLFSRRSLELDTGLPYELQAVTEAPHNPRYSPLP
partner: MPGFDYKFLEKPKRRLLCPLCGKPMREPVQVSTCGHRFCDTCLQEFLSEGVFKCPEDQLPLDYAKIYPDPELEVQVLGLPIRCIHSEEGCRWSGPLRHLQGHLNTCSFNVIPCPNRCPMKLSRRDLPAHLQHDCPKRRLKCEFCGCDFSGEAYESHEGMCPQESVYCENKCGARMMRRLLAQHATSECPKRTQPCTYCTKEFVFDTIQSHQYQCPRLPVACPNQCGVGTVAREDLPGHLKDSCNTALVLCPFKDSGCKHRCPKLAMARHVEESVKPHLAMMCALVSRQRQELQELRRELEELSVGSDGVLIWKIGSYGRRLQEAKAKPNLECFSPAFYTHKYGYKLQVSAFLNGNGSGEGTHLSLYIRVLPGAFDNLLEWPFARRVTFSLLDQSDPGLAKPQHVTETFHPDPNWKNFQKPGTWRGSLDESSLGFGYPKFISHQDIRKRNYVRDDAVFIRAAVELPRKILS
B3: Liprin-alpha-1 (Homo sapiens), Q13136 (parent)
chain: MMCEVMPTISEAEGPPGGGGGHGSGSPSQPDADSHFEQLMVSMLEERDRLLDTLRETQETLALTQGKLHEVGHERDSLQRQLNTALPQEFAALTKELNVCREQLLEREEEIAELKAERNNTRLLLEHLECLVSRHERSLRMTVVKRQAQSPAGVSSEVEVLKALKSLFEHHKALDEKVRERLRVALERCSLLEEELGATHKELMILKEQNNQKKTLTDGVLDINHEQENTPSTSGKRSSDGSLSHEEDLAKVIELQEIISKQSREQSQMKERLASLSSHVTELEEDLDTARKDLIKSEEMNTKLQRDVREAMAQKEDMEERITTLEKRYLAAQREATSVHDLNDKLENEIANKDSMHRQTEDKNRQLQERLELAEQKLQQTLRKAETLPEVEAELAQRVAALSKAEERHGNIEERLRQMEAQLEEKNQELQRARQREKMNEEHNKRLSDTVDKLLSESNERLQLHLKERMAALEDKNSLLREVESAKKQLEETQHDKDQLVLNIEALRAELDHMRLRGASLHHGRPHLGSVPDFRFPMADGHTDSYSTSAVLRRPQKGRLAALRDEPSKVQTLNEQDWERAQQASVLANVAQAFESDADVSDGEDDRDTLLSSVDLLSPSGQADAHTLAMMLQEQLDAINKEIRLIQEEKENTEQRAEEIESRVGSGSLDNLGRFRSMSSIPPYPASSLASSSPPGSGRSTPRRIPHSPAREVDRLGVMTLLPPSREEVRDDKTTIKCETSPPSSPRALRLDRLHKGALHTVSHEDIRDIRNSTGSQDGPVSNPSSSNSSQDSLHKAPKKKGIKSSIGRLFGKKEKGRPGQTGKEALGQAGVSETDNSSQDALGLSKLGGQAEKNRKLQKKHELLEEARRQGLPFAQWDGPTVVVWLELWVGMPAWYVAACRANVKSGAIMSALSDTEIQREIGISNPLHRLKLRLAIQEIMSLTSPSAPPTSRTTLAYGDMNHEWIGNEWLPSLGLPQYRSYFMECLVDARMLDHLTKKDLRGQLKMVDSFHRNSFQCGIMCLRRLNYDRKELERKREESQSEIKDVLVWSNDRVIRWILSIGLKEYANNLIESGVHGALLALDETFDFSALALLLQIPTQNTQARAVLEREFNNLLVMGTDRRFDEDDDKSFRRAPSWRKKFRPKDIRGLAAGSAETLPANFRVTSSMSSPSMQPKKMQMDGNVSGTQRLDSATVRTYSC
partner: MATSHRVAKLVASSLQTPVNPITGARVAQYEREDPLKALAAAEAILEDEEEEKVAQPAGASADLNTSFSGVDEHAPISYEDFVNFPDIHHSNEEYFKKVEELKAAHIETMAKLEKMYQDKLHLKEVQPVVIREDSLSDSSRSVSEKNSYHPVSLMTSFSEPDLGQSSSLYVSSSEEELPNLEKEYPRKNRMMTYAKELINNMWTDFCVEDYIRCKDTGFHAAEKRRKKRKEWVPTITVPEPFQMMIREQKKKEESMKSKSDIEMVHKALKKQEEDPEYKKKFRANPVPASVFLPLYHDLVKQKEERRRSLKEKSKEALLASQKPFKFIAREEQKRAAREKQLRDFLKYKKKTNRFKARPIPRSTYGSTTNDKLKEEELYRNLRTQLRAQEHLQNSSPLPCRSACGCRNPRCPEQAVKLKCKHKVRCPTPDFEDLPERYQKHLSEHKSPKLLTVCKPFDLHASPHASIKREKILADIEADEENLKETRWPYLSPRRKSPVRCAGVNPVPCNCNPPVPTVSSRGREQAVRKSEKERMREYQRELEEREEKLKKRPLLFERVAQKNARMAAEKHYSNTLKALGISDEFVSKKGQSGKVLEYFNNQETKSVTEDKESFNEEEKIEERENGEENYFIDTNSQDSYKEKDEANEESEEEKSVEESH
B4: SOSS complex subunit C (Homo sapiens), Q9NRY2 (parent)
chain: MAANSSGQGFQNKNRVAILAELDKEKRKLLMQNQSSTNHPGASIALSRPSLNKDFRDHAEQQHIAAQQKAALQHAHAHSSGYFITQDSAFGNLILPVLPRLDPE
B5: Protein VAC14 homolog (Homo sapiens), Q08AM6 (parent)
chain: MNPEKDFAPLTPNIVRALNDKLYEKRKVAALEIEKLVREFVAQNNTVQIKHVIQTLSQEFALSQHPHSRKGGLIGLAACSIALGKDSGLYLKELIEPVLTCFNDADSRLRYYACEALYNIVKVARGAVLPHFNVLFDGLSKLAADPDPNVKSGSELLDRLLKDIVTESNKFDLVSFIPLLRERIYSNNQYARQFIISWILVLESVPDINLLDYLPEILDGLFQILGDNGKEIRKMCEVVLGEFLKEIKKNPSSVKFAEMANILVIHCQTTDDLIQLTAMCWMREFIQLAGRVMLPYSSGILTAVLPCLAYDDRKKSIKEVANVCNQSLMKLVTPEDDELDELRPGQRQAEPTPDDALPKQEGTASGGPDGSCDSSFSSGISVFTAASTERAPVTLHLDGIVQVLNCHLSDTAIGMMTRIAVLKWLYHLYIKTPRKMFRHTDSLFPILLQTLSDESDEVILKDLEVLAEIASSPAGQTDDPGPLDGPDLQASHSELQVPTPGRAGLLNTSGTKGLECSPSTPTMNSYFYKFMINLLKRFSSERKLLEVRGPFIIRQLCLLLNAENIFHSMADILLREEDLKFASTMVHALNTILLTSTELFQLRNQLKDLKTLESQNLFCCLYRSWCHNPVTTVSLCFLTQNYRHAYDLIQKFGDLEVTVDFLAEVDKLVQLIECPIFTYLRLQLLDVKNNPYLIKALYGLLMLLPQSSAFQLLSHRLQCVPNPELLQTEDSLKAAPKSQKADSPSIDYAELLQHFEKVQNKHLEVRHQRSGRGDHLDRRVVL
partner: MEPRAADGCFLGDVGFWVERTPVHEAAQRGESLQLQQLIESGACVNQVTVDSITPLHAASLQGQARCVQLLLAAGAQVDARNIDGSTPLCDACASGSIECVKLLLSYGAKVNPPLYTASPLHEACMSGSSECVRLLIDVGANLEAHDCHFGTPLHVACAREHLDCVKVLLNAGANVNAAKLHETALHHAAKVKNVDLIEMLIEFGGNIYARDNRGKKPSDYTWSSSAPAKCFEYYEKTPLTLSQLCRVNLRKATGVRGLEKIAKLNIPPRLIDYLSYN
B6: Transmembrane protein 218 (Homo sapiens), A2RU14 (parent)
chain: MAGTVLGVGAGVFILALLWVAVLLLCVLLSRASGAARFSVIFLFFGAVIITSVLLLFPRAGEFPAPEVEVKIVDDFFIGRYVLLAFLSAIFLGGLFLVLIHYVLEPIYAKPLHSY

Variants of: B1
Conditions: with lims1_human LIMS1, P48059
lims1_human LIMS1, P48059, sequence (P48059 whole entry): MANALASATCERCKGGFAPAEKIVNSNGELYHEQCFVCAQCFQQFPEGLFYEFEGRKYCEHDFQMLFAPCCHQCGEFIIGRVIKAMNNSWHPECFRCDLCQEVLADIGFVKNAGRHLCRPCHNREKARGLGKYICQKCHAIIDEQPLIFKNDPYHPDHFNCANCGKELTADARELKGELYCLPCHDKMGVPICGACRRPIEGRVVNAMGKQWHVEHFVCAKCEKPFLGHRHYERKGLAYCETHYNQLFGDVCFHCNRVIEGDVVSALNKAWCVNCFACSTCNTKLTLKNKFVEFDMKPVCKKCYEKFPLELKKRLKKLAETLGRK

| effect of a mutation on the interaction | Variant |
| --- | --- |
| disrupting interaction strength | P57L |

Variants of: B2
Conditions: with traf4_human TRAF4, Q9BUZ4

| effect of a mutation on the interaction | Variant |
| --- | --- |
| disrupting interaction strength | C381Y |

Variants of: B3
Conditions: with FAM161A

| effect of a mutation on the interaction | Variant |
| --- | --- |
| disrupting interaction strength | L330F |

Variants of: B3
Conditions: with FAM161A
Remark: another data set of the same source

| effect of a mutation on the interaction | Variant |
| --- | --- |
| with no effect | P389L |

Variants of: B4
Conditions: with rbpms_human RBPMS

| effect of a mutation on the interaction | Variant |
| --- | --- |
| with no effect | K28T |

Variants of: B5
Conditions: with asb13_human ASB13, Q8WXK3

| effect of a mutation on the interaction | Variant |
| --- | --- |
| with no effect | A127S |

Variants of: B6
Conditions: with pcna_human PCNA

| effect of a mutation on the interaction | Variant |
| --- | --- |
| with no effect | P66S |
